Results published in PMC6351631, “Biochemical and Proteomic Characterization of Recombinant Human α/β Hydrolase Domain 6” (Scientific Reports, 2019).

B1: human alpha/beta hydrolase domain 6 (hABHD6) (Homo sapiens; DEL38-40) (protein)
chain: WPSALIRIYWRRTLGMQVRYVHHEDYQFCYSFRGRPGHKPSILMLHGFSAHKDMWLSVVKFLPKNLHLVCVDMPGHEGTTRSSLDDLSIDGQVKRIHQFVECLKLNKKPFHLVGTSMGGQVAGVYAAYYPSDVSSLCLVCPAGLQYSTDNQFVQRLKELQGSAAVEKIPLIPSTPEEMSEMLQLCSYVRFKVPQQILQGLVDVRIPHNNFYRKLFLEIVSEKSRYSLHQNMDKIKVPTQIIWGKQDQVLDVSGADMLAKSIANCQVELLENCGHSVVMERPRKTAKLIIDFLASVHNTDNNKKLD

Legend:
[1] = target: T1, human alpha/beta hydrolase domain 6 (hABHD6) (Homo sapiens, UniProt Q9BV23, DEL38-40); assay: MALDI-TOF MS of tryptic digest showing +[…] Da adduct on purified enzyme; fluorometric AHMMCE inhibition assay; format: binding
T1 construct: gene ABHD6; hΔ29-3-ABHD6 (first 29 residues and Y38YW deleted, N-terminal His6) for MS; full-length hABHD6 in solubilized E. coli membrane fraction for IC50
T1 sequence (Q9BV23 with tags, fused parts or gaps DEL38-40): B1 chain

[2] = substrate: CCCCC/C=C\C/C=C\C/C=C\C/C=C\CCCC(=O)OC(CO)CO; assay: HPLC quantification of arachidonic acid formed, Michaelis-Menten kinetics (Km); format: biochemical, Homo sapiens

| Molecule | IC50 [1] | Km [2] | Vmax [2] |
| --- | --- | --- | --- |
| CN(C)C(=O)n1nnc(Cc2ccc(-c3ccccc3)cc2)n1 [AM6701] | 0.9 nM | – | – |
| B1 | – | 139 µM | 0.35 µM/min/mg |
